The record followed here is patent US20060171935A1, “Protecting cell therapy for neurological disorders including Parkinson's disease” (priority 2005, published 2006).

The test system of data set [1] is DJ-1 deficient dopamine neurons. The data set can be described thus: 6-OHDA sensitivity of ES-derived dopamine neurons, 3H-dopamine uptake. The data set is classed as cell-based, murine. To be noted: 9 DIV, 72 h exposure. The text has this:
(A) The SDIA coculture method. DJ-1 knockout or control heterozygous ES cells are cocultured with mouse stromal cells (MS5) in the absence of serum and leukemia inhibitory factor for 18 DIV. (B) DN production was quantified at 18 DIV by 3H-dopamine uptake assay. DJ-1-deficient ES cell cultures were defective relative to heterozygous control cultures. (C-D) Neuron production was quantified by immunohistochemical analysis as a percent of TuJ1-positive colonies that express TH (C) or GABA (D). Quantification of TH and GABA immunostaining was performed on all colonies in each of three independent wells. Colonies were scored as positive if any immunostained cells were present. *p≦0.05. […] (F) Kinetic analysis of DN differentiation in DJ-1-deficient cultures (clone 32, solid square) and heterozygous controls (open circle) as quantified by 3H-dopamine uptake assay. *p≦0.05. […] DNs were quantified by 3H-dopamine uptake assay. Data represent the means±SEM and were analyzed by ANOVA followed by Fisher's post-hoc test. *p≦0.05. […]
In Vivo Assays. […] Cell viability (as a percent of untreated control) was determined by MTT assay in triplicate (Fezoui et al. 2000). […] Reported values represent specific uptake from which non-specific uptake, determined in the presence of mazindol, was subtracted, and normalized for protein content (BCA kit, Pierce).

A further data set deals with cerebellar granule cells. The data set can be described thus: Parkin overexpression in kainate-treated cerebellar granule cells. It counts as cell-based, mice. The note with it: 500 μM for 24 h. On the procedure:
Cerebellar granule neurons from P6 mice were purified and transfected essentially as described (Scheiffele et al., Neuroligin expressed in nonneuronal cells triggers presynaptic development in contacting axons. Cell, 101:657-69, 2000). Dissociated cortical neurons from E16.5 mice were prepared and cultured as described (Scheiffele et al., Neuroligin expressed in nonneuronal cells triggers presynaptic development in contacting axons. Cell, 101:657-69, 2000). Primary midbrain cultures were prepared from E13.5 mouse embryos, as described (Hynes et al., Induction of midbrain dopaminergic neurons by Sonic hedgehog. Neuron, 15:35-44, 1995). Cells were treated for 24 h with or without kainate (250 or 500 μM as indicated; Sigma) or MPP^+ (1 or 10 μM as indicated; Sigma), stained for 20 min with 0.5 μg/ml Hoechst 33342 (Sigma), and visualized by fluorescence microscopy. For granule cell assays, at least 100 cells in two 20× fields were scored in duplicate for GFP and/or Hoechst signal. […] Cells were washed, incubated for 1 h at room temperature with appropriately-labeled secondary antibodies, and visualized by fluorescence microscopy. For midbrain culture experiments, DAT-specific immunoreactivity (pixels), and cytoplasmic parkin and cyclin E immunoreactivity (mean pixel density), were quantified in triplicate, across nine fields of view, at 20× using Image software (Scion). […]

The subject of the next data set is insulin. As to the kind of experiment: Aggregation suppression of DTT-reduced insulin B chains. The data set is classed as biochemical. To be noted: insulin 26 μM, 20 mM DTT, 25° C. On the procedure: FIG. 22 illustrates that DJ-1 is a redox-dependent molecular chaperone. (A) Aggregation of CS was monitored at 43° C. after addition of either 0.8 μM CS alone (black), or along with 8.0 μM RNase A (purple), 0.5 μM DJ-1 (aqua), 2.0 μM DJ-1 (blue), 4.0 μM DJ-1 (red), or 2.0 μM Hsp27 (green). (B) Aggregation of 0.8 μM CS after 30 min at […] (unfilled bar) is inhibited by 4.0 μM WT DJ-1 (black bar) but not 4.0 μM L166P mutant DJ-1 (gray bar). Data are shown as the mean±SEM and were analyzed by ANOVA with Fisher's post-hoc test. *p<0.05. (C) Aggregation of insulin (26 μM) B chains induced by 20 mM DTT at 25° C. Insulin alone (black) or in the presence of 4.0 μM RNase A (purple), 0.5 μM DJ-1 (aqua), 2.0 μM DJ-1 (blue), 4.0 μM DJ-1 (red), or 2.0 μM Hsp27 (green). […] (gray bar). Further treatment of DTT-reduced DJ-1 with 10 mM H2O2 for 10 min at 4° C. leads to reactivation of CS suppression (hatched bar). Data are shown as the mean±SEM and were analyzed by ANOVA with Fisher's post-hoc test. *p<0.05.
CS aggregation was performed in 40 mM HEPES (pH 7.8), 20 mM potassium hydroxinde, 50 mM potassium chloride, and 10 mM ammonium sulfate, and monitored in a thermostat-controlled fluorescence spectrophotometer with excitation and emission wavelengths at 500 nm and slit widths at 2.5 nm. Insulin aggregation was performed as described (Giasson et al. 2000). […]

The target of data set [2] is T1, αSyn (Homo sapiens, UniProt P37840). The data set can be described thus: αSyn protofibril formation in vitro. The data set is classed as biochemical. To be noted: molar ratio 1:2 (DJ-1: αSyn), 2 h at 55° C.
Experimental: αSyn protofibril and fibril formation assays were performed essentially as described (Uversky et al.). Briefly, protofibrils were formed by incubation of 200 μM WT synuclein with 100 μM DJ-1 or control chaperone protein in PBS for 2 h at 55° C. Samples were mixed with SDS loading buffer and analyzed by SDS-PAGE and Western blotting using αSyn LB509 antibody (Zymed). Quantitation of high molecular weight αSyn was performed using NIH Image J. Integrated pixel intensity of high molecular weight synuclein for each sample was normalized to monomeric synuclein intensity. For fibril formation, αSyn and chaperone proteins (as described above) were incubated with shaking for 1 wk at 37° C. Fibril formation was assessed by Congo red (Conway et al. 2000b).
The target of data set [3] is T1, αSyn. The data set can be described thus: αSyn Congo red-positive fibril formation in vitro. The note with it: 200 μM αSyn, proteins 100 μM, 1 wk at 37° C. The data set is classed as biochemical.
Experimental: αSyn protofibril and fibril formation assays were performed essentially as described (Uversky et al.). […] For fibril formation, αSyn and chaperone proteins (as described above) were incubated with shaking for 1 wk at 37° C. Fibril formation was assessed by Congo red (Conway et al. 2000b).
The next data set has as its target T2, citrate synthase (CS) (Sus scrofa, UniProt P00889).
T2 construct: purchased Sigma
T2 sequence (P00889 28-464): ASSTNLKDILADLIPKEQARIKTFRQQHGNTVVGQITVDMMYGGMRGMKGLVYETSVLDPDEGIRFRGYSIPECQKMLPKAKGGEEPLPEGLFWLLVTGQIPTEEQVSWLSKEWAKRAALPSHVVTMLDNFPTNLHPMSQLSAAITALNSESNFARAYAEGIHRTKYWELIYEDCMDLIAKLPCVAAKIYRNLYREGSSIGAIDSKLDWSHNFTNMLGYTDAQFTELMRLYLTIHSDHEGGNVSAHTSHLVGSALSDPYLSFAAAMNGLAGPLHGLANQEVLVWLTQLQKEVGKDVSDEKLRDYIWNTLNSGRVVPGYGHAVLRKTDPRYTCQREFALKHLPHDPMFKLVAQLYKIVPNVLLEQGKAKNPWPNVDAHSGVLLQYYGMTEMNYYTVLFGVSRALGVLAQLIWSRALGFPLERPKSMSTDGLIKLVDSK
The data set can be described thus: Suppression of heat-induced aggregation of citrate synthase (chaperone assay). It counts as biochemical. The note with it: 0.8 μM CS, 43° C. On the procedure: To test the redox regulation of DJ-1, the inventors assayed chaperone activity in the CS aggregation assay in the presence or absence of the reducing agent DTT. […] (FIG. 22D). […] To further test whether redox regulation might govern DJ-1 chaperone activity, reactivation studies using reduced DJ-1 were performed. DTT-reduced DJ-1 was incubated with H2O2 (10 mM in aggregation buffer for 10 min at 4° C. followed by dialysis against aggregation buffer for 2 h), and subsequently chaperone activity was measured in the CS thermal aggregation assay. […] This was not an indirect effect of residual H2O2 on CS aggregation, as H2O2 treatment of CS increased aggregation (unpublished data).
CS aggregation was performed in 40 mM HEPES (pH 7.8), 20 mM potassium hydroxinde, 50 mM potassium chloride, and 10 mM ammonium sulfate, and monitored in a thermostat-controlled fluorescence spectrophotometer with excitation and emission wavelengths at 500 nm and slit widths at 2.5 nm. Insulin aggregation was performed as described (Giasson et al. 2000). CS, insulin, RNase A, and GST were obtained from Sigma; human Hsp27 was obtained from Stressgen.

`NCCc1cc(O)c(O)cc1O` [6-OHDA, 6-hydroxydopamine]: in data set [1], the “sensitivity of DJ-1 deficient dopamine neurons to toxin” value is “increased sensitivity”.
As for `C=C(C)[C@H]1CN[C@H](C(=O)O)[C@H]1CC(=O)O` [kainate], in the data set on cerebellar granule cells, the “effect of toxin on cyclin E in granule cell cultures” value was “led to the accumulation of cyclin E”.
Consider “Hsp27: well-described small cytoplasmic chaperone, human Hsp27, from Stressgen; positive control [reference compound]”, for which, in the data set on insulin, the “aggregation suppression of reduced insulin” value was “effectively inhibited”. In addition, the “formation of soluble αSyn protofibrils” value with αSyn [2] is on record as “failed to inhibit”.
In the case of glutathione S-transferase [GST], the “formation of Congo red-positive αSyn fibrils” value with αSyn [3] is reported as “did not”. Further, the “formation of soluble αSyn protofibrils” value with αSyn [2] was “failed to inhibit”.

B1: RNase A: negative control protein, from Sigma (protein, UniProt P61823 27-150, looked up)
Ribonuclease pancreatic: KETAAAKFERQHMDSSTSAASSSNYCNQMMKSRNLTKDRCKPVNTFVHESLADVQAVCSQKNVACKNGQTNCYQSYSTMSITDCRETGSSKYPNCAYKTTQANKHIIVACEGNPYVPVHFDASV
As to B1, in the data set on insulin, the “aggregation suppression of reduced insulin” value was “neither DJ-1 nor the negative control protein RNase A displayed chaperone activity”. In the data set with citrate synthase (CS), the “suppression of heat-induced aggregation of CS (chaperone activity)” value is reported as “failed to demonstrate chaperone activity”.
